Test results taken from PMC2879510.

Molecular target: U1A-Myc-His (UniProt P09012 1-102)
Experiment: competition

Sequence of U1A-Myc-His (P09012 1-102): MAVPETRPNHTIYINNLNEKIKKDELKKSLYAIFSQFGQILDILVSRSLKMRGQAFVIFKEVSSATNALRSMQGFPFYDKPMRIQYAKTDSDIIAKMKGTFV

GGCAUAUCCAGUGCACCAGGGUAUGCC (structured_RNA) [hpIIΔDIS (U1 hpII Δ16/18A/10G)]
binding result: binds
